Counter-ions that a name gives are not always drawn. Like-named read-outs stand apart in the source and are kept apart here.
Assays:
[1] = tested on: immortalized megakaryocyte line (SeV2-MKCL)
Experimental: Culturing was implemented by disseminating the cells at 2 mL/well in a 6-well plate at a seeding concentration of 1×10^5 cells/mL followed by static culturing in the medium indicated below.
After simultaneously adding SR-1 at the concentrations shown in FIG. 1 and culturing for 7 days, the number and function of the platelets were measured. The measurement method was as shown below.
The culture supernatant was gently suspended using a 1 mL Pipetman 7 days after culturing to terminate gene expression. 200 μL of the culture broth were dispensed into a 5 mL sample tube followed by staining with the antibodies indicated below.
Measurement was carried out using FACS Verse manufactured by Becton Dickinson and Company 30 minutes after the reaction. 400 μL of Tyrode's buffer Ca^+ were added immediately before measurement to bring to a total volume of 600 μL. This total volume of 600 μL was used for the FACS measurement sample.
The number of particles positive for CD42a and CD42b were considered to represent the number of platelets, and the ratio of the mean fluorescence intensities (MFI) of PAC-1 and CD62p in this platelet fraction before and after stimulation was calculated.

[2] = tested on: immortalized megakaryocytes; details: for synergistic effect on number and function of platelets produced, ROCK inhibitor combined with SR-1: in combination with SR-1, compared with each alone (FIG. 9)
Experimental: Immortalized megakaryocytes obtained according to the method described in section 1 were washed twice with PBS(−) followed by removing the doxycycline to terminate overexpression, static culturing after disseminating the cells in a 6-well plate at 2 mL/well and a seeding density of 1×10^5 cells/mL, and then shake culturing in an E125 flask at 25 mL/flask and a seeding density of 1×10^5 cells/m L.
The medium was obtained by adding the following components to IMDM serving as the basal medium (concentrations indicate final concentrations).
Culturing was implemented under conditions of 37° C., 5% CO2 and 20% O2. The numbers of platelets and PAC-1 positive cells were measured using the same method as described in the above-mentioned section 2.

[3] = tested on: immortalized megakaryocytes; test: shRNA knockdown: multinucleation and platelet production after terminating overexpression of cMYC, BMI1 and BCL-xL; type: cell-based, human
Experimental: Next, the production of platelets was measured after having terminated overexpression of cMYC, BMI1 and BCL-xL genes using the method described in the aforementioned section 1-5.

[4] = tested on: immortalized megakaryocytes; test: Electron microscopy of shRNA-introduced megakaryocytes cultured with SR-1 and Y27632; type: cell-based, human; details: DOX-free medium containing SR-1 and Y27632 (FIG. 21)
Experimental: Cells introduced with genes shRUNX1, shHMGA2 and shSCRAMBLE obtained in section 9 above were cultured in DOX-free megakaryocyte medium containing SR-1 and Y27632 and observed with an electron microscope.

[5] = tested on: immortalized megakaryocytes; test: shRNA knockdown in immortalized megakaryocytes during overexpression: number of CD41a-positive cells; type: cell-based, human; details: during overexpression of BMI1, c-MYC and BCL-xL (FIG. 17)
Text: Genes of shRUNX1 with GFP, shHMGA2 with GFP and SCRAMBLE with GFP were introduced into the immortalized megakaryocytes prepared in the above-mentioned section 1 using a viral vector. The cells introduced with the above genes (GFP-positive cells) were then sorted.

CC(C)n1cnc2c(NCCc3ccc(O)cc3)nc(-c3csc4ccccc34)nc21 [SR-1, 4-(2-(2-(benzo[b]thiophen-3-yl)-9-isopropyl-9H-purin-6-ylamino)ethyl)phenol]
duration of culturing after which highly functional platelets tend to be obtained ([1]; AhR antagonist added after terminating overexpression): 5 days | platelet function ([1]; compared with the absence of SR-1 (FIG. 1)): higher | number of platelets bound by PAC-1 and anti-CD62p antibody ([1]; static culturing 7 days, no feeder cells, addition of SR-1 (FIG. 1)): confirmed to increase

Cc1ccccc1N=Nc1ccc(NC(=O)c2ccnn2C)c(C)c1 [CH-223191, 2-methyl-2H-pyrazole-3-carboxylic acid (2-methyl-4-o-tolylazo-phenyl)-amide]
synergistic effect on number of platelets produced, AhR antagonist combined with Y27632 ([2]; in combination with Y27632 (FIG. 10)): prominent synergistic effects that exceeded that of SR-1

C[C@@H](N)c1ccc(C(=O)Nc2ccnc3[nH]ccc23)cc1 [Y39983]
synergistic effect on number and function of platelets produced, ROCK inhibitor combined with SR-1 [2]: prominent synergistic effect that exceeded that of Y27632

O=S(=O)(c1cccc2cnccc12)N1CCCNCC1 [fasudil hydrochloride]
synergistic effect on number and function of platelets produced, ROCK inhibitor combined with SR-1 ([2]; hydrochloride): concentration-dependent synergistic effects comparable to that of Y27632

C[C@H]1CNCCCN1S(=O)(=O)c1cccc2cncc(F)c12 [ripasudil]
synergistic effect on number and function of platelets produced, ROCK inhibitor combined with SR-1 [2]: concentration-dependent synergistic effects comparable to that of Y27632

B1: shHMGA2: shRNA against HMGA2, target sequence SEQ ID NO: 5, shRNA sequence SEQ ID NO: 6, introduced with viral vector (nucleic acid)
chain: GATCCCCATGAGACGAAATGCTGATGTATTTCAAGAGAATACATCAGCATTTCGTCTCATTTTTTGGAAAA
number of platelets produced per megakaryocyte ([3]; after terminating overexpression (bottom of FIG. 19)): increase dramatically | megakaryocyte multinucleation ([3]; after terminating overexpression (top of FIG. 19)): considerable promotion | cell morphology by electron microscopy [4]: multinucleated and enlarged cells were observed | development of demarcation membrane systems (DMS) in the cells [4]: formation of a DMS and secretory granules was observed | formation of secretory granules [4]: formation of a DMS and secretory granules was observed | number of CD41a-positive cells [5]: decrease

B2: shRUNX1: shRNA against RUNX1, target sequence SEQ ID NO: 3, shRNA sequence SEQ ID NO: 4 (nucleic acid)
chain: GATCCCCACTTTCCAGTCGACTCTCATTCAAGAGATGAGAGTCGACTGGAAAGTTTTTTGGAAAA
cell morphology by electron microscopy [4]: numerous small nucleated cells | development of demarcation membrane systems (DMS) in the cells [4]: lacking | formation of secretory granules [4]: only be formed to a moderate degree | number of CD41a-positive cells [5]: increase

Source: patent US10947504B2, “Method for producing highly functional platelets” (Kyoto University, priority 2015, dated 2021)
